In the supplement of paper PMC10567573 one finds protein stability index data, which are given here for 94 variants.

Sequences and labels used below:
B1: INTS4 (parent)
chain: YSSGEFSSGRKWGDDAPKEEVDTG
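Further: lentivirally expressed fusions sorted by FACS into six bins by GFP to DsRed ratio, PSI derived from sequencing read proportions per bin multiplied by bin number.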

In this data set the parent is B1. Briefly: protein stability index of a GFP-peptide fusion (GPS, HEK-293T) (PSI 1-6); higher = more stable. The following applies: c terminus: a fixed tail appended.
In the case of YSSGEFTSGRKWGDDAPKEEVDTG, the protein stability index came to 3.02.
Under YSSGEFKSGRKWGDDAPKEEVDTG stands 3.45; under YSSGEFMSGRKWGDDAPKEEVDTG, 2.17; under YSSGEFNSGRKWGDDAPKEEVDTG, 3.3.
Under YSSGEFASGRKWGDDAPKEEVDTG stands 1.91.
With YSSGEFHSGRKWGDDAPKEEVDTG, the protein stability index is 1.92.
Next, YSSGEFGSGRKWGDDAPKEEVDTG: 2.75.
For the variant YSSGEFQSGRKWGDDAPKEEVDTG, the protein stability index is 2.69.
Under YSSGEFCSGRKWGDDAPKEEVDTG stands 2.32; under YSSGEFSSGRKWGDDGPKEEVDTG, 2.16.
Under YSSGEFSSGRKWGDDDPKEEVDTG stands 2.95; under YSSGEFSSGRKWGDDIPKEEVDTG, 2.28; under YSSGEFSSGRKWGDDCPKEEVDTG, 2.71.
Next, YSSGEFSSGRKWGDDHPKEEVDTG: 1.92; YSSGEFSSGRKWGDDFPKEEVDTG: 2.3.
On to YSSGEFSSGRKWGDDKPKEEVDTG, for which the protein stability index was 2.19.
Next, YSSGEFSSGRKWGDDLPKEEVDTG: 2.48; YSSGEFSSGRKWGDDEPKEEVDTG: 2.99; YSSGEFSSGRKEGDDAPKEEVDTG: 3.84.
Under YSSGEFSSGRKPGDDAPKEEVDTG stands 2.92; under YSSGEFSSGRKMGDDAPKEEVDTG, 2.85.
Consider YSSGEFSSGRKIGDDAPKEEVDTG, for which the protein stability index came to 3.2.
Under YSSGEFSSGRKHGDDAPKEEVDTG stands 3.29.
Next, YSSGEFSSGRKCGDDAPKEEVDTG: 2.7; YSSGEFSSGRKSGDDAPKEEVDTG: 4.44; YSSGEFSSGRKFGDDAPKEEVDTG: 2.96.
Next, YSSGEFSSGRKDGDDAPKEEVDTG: 3.21; YSSGEFSSGRKLGDDAPKEEVDTG: 3.24.
As for YSSGEFSSGRKYGDDAPKEEVDTG, the protein stability index amounted to 2.57.
Under YSSGEFSSGRKKGDDAPKEEVDTG stands 2.94; under YSSGEFSSGRKTGDDAPKEEVDTG, 3.08.
Under YSSGEFSSGRKGGDDAPKEEVDTG stands 3.11.
Under YSSGEFSSGRKVGDDAPKEEVDTG stands 3.08.
Regarding YSSGEFSSGRKNGDDAPKEEVDTG, the protein stability index turned out to be 3.3.
With YSSGEFSSGRKRGDDAPKEEVDTG, the protein stability index was found to be 2.86.
Under YSSGEFSSGRKQGDDAPKEEVDTG stands 3.17.
In the case of YSSGEFSSGRKAGDDAPKEEVDTG, the protein stability index was 3.22.
Next, YSSGEFSSGRWWGDDAPKEEVDTG: 1.94; YSSGEFSSGRNWGDDAPKEEVDTG: 3.21.
Under YSSGEFSSGRSWGDDAPKEEVDTG stands 3.02; under YSSGEFSSGRYWGDDAPKEEVDTG, 3.31; under YSSGEFSSGRAWGDDAPKEEVDTG, 2.7.
Under YSSGEFSSGRRWGDDAPKEEVDTG stands 1.97; under YSSGEFSSGRVWGDDAPKEEVDTG, 2.39; under YSSGEFSSGRIWGDDAPKEEVDTG, 1.78.
On to YSSGEFSSGRTWGDDAPKEEVDTG, for which the protein stability index turned out to be 2.31.
Next, YSSGEFSSGREWGDDAPKEEVDTG: 3.25; YSSGEFSSGRMWGDDAPKEEVDTG: 2.62; YSSGEFSSGRCWGDDAPKEEVDTG: 1.93.
Next, YSSGEFSSGRQWGDDAPKEEVDTG: 2.83; YSSGEFSSGRGWGDDAPKEEVDTG: 2.98.
Under YSSGEFSSGRLWGDDAPKEEVDTG stands 1.91.
As to YSSGEFSSGRHWGDDAPKEEVDTG, the protein stability index was found to be 2.45.
Under YSSGEFSSGRPWGDDAPKEEVDTG stands 2.08; under YSSGEFSSGRDWGDDAPKEEVDTG, 2.73.
Under YSSGEFSSGRFWGDDAPKEEVDTG stands 1.9; under YSSGEFSSGTKWGDDAPKEEVDTG, 2.8.
Next, YSSGEFSSGAKWGDDAPKEEVDTG: 2.35; YSSGEFSSGQKWGDDAPKEEVDTG: 1.98; YSSGEFSSGNKWGDDAPKEEVDTG: 2.63.
For YSSGEFSSGCKWGDDAPKEEVDTG, the protein stability index was determined as 2.47.
Next, YSSGEFSSGDKWGDDAPKEEVDTG: 3.93; YSSGEFSSGVKWGDDAPKEEVDTG: 2.5; YSSGEFSSGKKWGDDAPKEEVDTG: 2.81.
Under YSSGEFSSGSKWGDDAPKEEVDTG stands 3.19; under YSSGEFSSGLKWGDDAPKEEVDTG, 2; under YSSGEFSSGMKWGDDAPKEEVDTG, 1.52.
Under YSSGEFSSGPKWGDDAPKEEVDTG stands 2.3; under YSSGEFSSGHKWGDDAPKEEVDTG, 2.85.
As for YSSGEFSSGWKWGDDAPKEEVDTG, the protein stability index was determined as 1.65.
Under YSSGEFSSGYKWGDDAPKEEVDTG stands 2.41; under YSSGEFSSGFKWGDDAPKEEVDTG, 1.74.
Under YSSGEFSSGIKWGDDAPKEEVDTG stands 2.13; under YSSGEFSSGEKWGDDAPKEEVDTG, 3.65.
YSSGEFSSGGKWGDDAPKEEVDTG: the protein stability index amounted to 2.93.
Under YSSGEFSSGRKWQDDAPKEEVDTG stands 3.38; under YSSGEFSSGRKWEDDAPKEEVDTG, 3.02.
Under YSSGEFSSGRKWRDDAPKEEVDTG stands 2.15; under YSSGEFSSGRKWNDDAPKEEVDTG, 3.13; under YSSGEFSSGRKWFDDAPKEEVDTG, 2.65.
Next, YSSGEFSSGRKWCDDAPKEEVDTG: 2.65; YSSGEFSSGRKWVDDAPKEEVDTG: 2.47.
With YSSGEFSSGRKWPDDAPKEEVDTG, the protein stability index came out at 2.6.
Under YSSGEFSSGRKWADDAPKEEVDTG stands 2.65; under YSSGEFSSGRKWMDDAPKEEVDTG, 2.45; under YSSGEFSSGRKWWDDAPKEEVDTG, 2.44.
Next, YSSGEFSSGRKWYDDAPKEEVDTG: 2.81; YSSGEFSSGRKWDDDAPKEEVDTG: 2.5.
Under YSSGEFSSGRKWKDDAPKEEVDTG stands 2.5; under YSSGEFSSGRKWLDDAPKEEVDTG, 2.35.
As for YSSGEFSSGRKWTDDAPKEEVDTG, the protein stability index was 2.5.
Next, YSSGEFSSGRKWSDDAPKEEVDTG: 2.94; YSSGEFSSGRKWIDDAPKEEVDTG: 2.48.
Under YSSGEFSSGRKWHDDAPKEEVDTG stands 3.66.
